Among the data in patent publication US20070055049A1 are IC50 and percent of radiolabeled peptide bound values, retold here.

The target of assay [1] is HLA-A*0201 (human). Briefly: competitive inhibition, purified HLA-A2.1, reference peptide.
Assay [2] concerns the target HLA-A*0201 (human). Briefly: competitive inhibition, purified HLA-A2.1, standard reference peptide.
The next assay concerns the target HLA-A*0203 (human). Briefly: competitive inhibition of the radiolabeled peptide, purified HLA, average.
Assay [3] addresses HLA-A*0201 (human). The assay is described as above.
Assay [4] addresses HLA-A*0201 (human). Description: competitive inhibition, purified HLA-A2.1.
The target of assay [5] is HLA-A3.2 (product of the A*0301 gene) (human).
Assay [6] addresses HLA-A*0201 (human). Briefly: inhibition curve with unlabeled peptide, purified A2.1. As to conditions: remark: other sources report otherwise.
Assay [7] deals with HLA-A*0201 (human). As to conditions: remark: other sources report otherwise.

Usually IC50 stands for the concentration that gives 50% inhibition. Read a high IC50 as weaker potency in that assay.

B1: HBV core 18-27 F6>Y analog peptide (peptide)
peptide: FLPSDYFPSV
modifications: not checked
Turning to B1, the IC50 worked out at 5 nM with HLA-A*0201 (human) [1], 5 nM with HLA-A*0201 (human) [2], 10 nM in the assay with HLA-A*0203 (human) and 5 nM with HLA-A*0201 (human) [3].

B2: HBV pol 538 peptide (peptide)
peptide: YMDDVVLGA
modifications: not checked
Consider B2, for which the 50% inhibitory concentration (IC50) with HLA-A*0201 (human) [4] was 200 nM.

B3: HBc 18-27 peptide, P03146 18-27 (peptide)
peptide: FLPSDFFPSV
modifications: not checked
In the case of B3, the values for the IC50 (in assay [5]; in the assay with HLA-A*0201 (human) [6]) were above 30000 nM and 25 nM, respectively. In the assay with HLA-A*0201 (human) [7], this molecule yielded a percent of radiolabeled peptide bound of 95%.
